Measurements as given in patent JP2000166574A.

Target: 抗Fasモノクローナル抗体HFE7A (from mouse-mouse hybridoma HFE7A, FERM BP-5828)
Experiment: peptide (200 μg) preincubated with HFE7A (0.25 μg), then flow cytometry on WR19L12a cells

Row | Binder | inhibition of binding of HFE7A to WR19L12a cells [%]
1 | EINCTRTQNT [P100] | 50
2 | KCRCKPNFFC [P110] | 60
